From US7393670B2, “Tyrosyl-tRNA synthetase variants” (Japan Science and Technology Agency, priority 2001, dated 2008)

Key:
[1] = tested on: wheat germ cell-free translation system; test: LC-MS analysis of K3 fragment of Ras translation products; format: biochemical; conditions: absorbance of chromatogram
Experimental: It was examined by mass spectrometry that iodotyrosine was actually inserted at the position corresponding to the amber codon of the peptide chain. Ras protein purified using nickel beads was applied on SDS-PAGE. A band corresponding to a mobility of Ras among stained product bands was cut out and treated with peptidase. A resultant fragment was analyzed by LC-MS (liquid chromatography—mass spectrometry). The 32nd codon of Ras protein used as a reporter protein is the codon for tyrosine. […] Among the fragments obtained by digesting the translation products, the fragment including the 32nd amino acid from N-terminus (Ser 17 to Lys 42, referred to as K3 fragment) was focused and analyzed. […] No K3 fragment was detected where the other amino acid was accidentally inserted at the site corresponding to the amber codon. The ratio of iodotyrosine to tyrosine inserted to the amber codon was examined by absorbance of chromatogram. […] On the other hand, no fragment having the mass corresponding to the case encompassing iodotyrosine in place of tyrosine was detected in the analysis of the translation products from mRNA which contained no amber codon. […]
It was examined by mass spectrometric analysis that iodotyrosine was actually inserted at the position corresponding to the amber codon of the peptide chain. […] Elutes were analyzed by Finnigan LCQ ion trap mass spectrometer using ESI probe. […]

[2] = Aminoacylation reaction, simplified Lloyd's method, inorganic phosphate detected with Biomol green; format: biochemical; design: key: ***: the reaction could be detected strongly at 25 nM; **: strongly at 250 nM; *: weakly at 250 nM; the activity is high in the order of *** > ** > * > —; conditions: Table 3; 3-iodotyrosine 1 mM; 37° C. for 4 min
Experimental: In the first method, Lloyd's method (Nucleic Acids Research, 23:2886-2892, 1995) where inorganic phosphate produced by pyrophosphatase-drived hydrolysis of pyrophosphate which was one of the reaction products of the aminoacylation reactions was quantified was simplified, and the inorganic phosphate was detected using Biomol green (Funakoshi) to carry out the measurement of the aminoacylation reaction.
Amino acid concentrations were 200 μM and 1 mM for tyrosine and 3-iodotyrosine, respectively.
The method where the aminoacylation reaction is measured by quantifying inorganic phosphate produced by pyrophosphatase-drived hydrolysis of pyrophosphate which is one of reaction products of the aminoacylation has been described by Lloyd et al. (Nucleic Acids Research, 23:2886-2892, 1995). In one method of the invention, this method was simplified and the aminoacylation reaction was measured by the detection of inorganic phosphate using Biomol green (Funakoshi). Each enzyme obtained was incubated with 0.05 ml of the buffer B containing 1 mM ATP (Seikagaku Corporation), 30 μM purified crude tyrosyl-tRNA, and 100 μM tyrosine or 0.5 mM 3-iodotyrosine at 37° C. for one hour. To stop the reaction, 0.1 ml of Bio mol green was added. Absorbance of its supernatant was measured at 630 nm.

B1: VC: E. coli TyrRS double variant: position 37 Valine, position 195 Cysteine (protein, UniProt P0AGJ9 2-424, looked up, variant Y37V Q195C)
Tyrosine--tRNA ligase: ASSNLIKQLQERGLVAQVTDEEALAERLAQGPIALVCGFDPTADSLHLGHLVPLLCLKRFQQAGHKPVALVGGATGLIGDPSFKAAERKLNTEETVQEWVDKIRKQVAPFLDFDCGENSAIAANNYDWFGNMNVLTFLRDIGKHFSVNQMINKEAVKQRLNREDQGISFTEFSYNLLQGYDFACLNKQYGVVLCIGGSDQWGNITSGIDLTRRLHQNQVFGLTVPLITKADGTKFGKTEGGAVWLDPKKTSPYKFYQFWINTADADVYRFLKFFTFMSIEEINALEEEDKNSGKAPRAQYVLAEQVTRLVHGEEGLQAAKRITECLFSGSLSALSEADFEQLAQDGVPMVEMEKGADLMQALVDSELQPSRGQARKTIASNAITINGEKQSDPEYFFKEEDRLFGRFTLLRRGKKNYCLICWK
In the case of B1, the “K3 fragments encompassing iodotyrosine by the amber suppression” value [1] is reported as ≥ 95%, the “ratio of tyrosine insertion at the amber codon” value [1] is reported as ≤ 5% and the “Aminoacylation activity, 3-iodotyrosine” value [2] is reported as “**”.
